Molecular target: the molecule itself
Assay: intrinsic tryptophan fluorescence (parameter A, fluorescence anisotropy r) with GdnHCl unfolding-refolding curves; recombinant bOBP 0.1-0.2 mg/mL in 20 mM Na-phosphate pH 7.8 with PEG-600, PEG-4000 or PEG-12000 at 80, 150 or 300 mg/mL; incubated at 4 °C, measured at 23 °C; monomer to dimer, inferred from raised anisotropy and sigmoidal unfolding curves

B1: recombinant bovine odorant-binding protein (natural protein)
chain: AQEEEAEQNLSELSGPWRTVYIGSTNPEKIQENGPFRTYFRELVFDDEKGTVDFYFSVKRDGKWKNVHVKATKQDDGTYVADYEGQNVFKIVSLSRTHLVAHNINVDKHGQTTELTELFVKLNVEDEDLEKFWKLTEDKGIDKKNVVNFLENEDHPHPE
notes: Written as the single chain that associates with itself into the domain-swapped dimer; also called bOBP; recombinant bOBP; source: E. coli BL21(DE3), purified (Ni+-agarose, HisGraviTrap columns)
  binding result: binds
